Assay results: publication PMC6386588 (Molecular cell, 2019)

Biological target: H-Ras protein: His tagged: human wild type (MST) (human, UniProt P01112 1-189)
Experiment: MST

Sequence of H-Ras protein: His tagged: human wild type (MST) (P01112 whole entry): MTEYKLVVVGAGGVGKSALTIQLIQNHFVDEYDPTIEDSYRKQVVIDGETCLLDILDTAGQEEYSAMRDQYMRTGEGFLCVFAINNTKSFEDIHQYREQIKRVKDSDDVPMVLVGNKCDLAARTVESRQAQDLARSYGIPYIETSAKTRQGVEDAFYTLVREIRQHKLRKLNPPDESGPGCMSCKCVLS

B1: FHH:MAPKAP1^RBD (AA279-353) (domain or fragment, UniProt Q9BPZ7 279-353, looked up)
chain: LFVRINAAHGFSLIQVDNTKVTMKEILLKAVKRRKGSQKVSGPQYRLEKQSEPNVAVDLDSTLESQSAWEFCLVR
modifications: RED-tris-NTA dye on the His tag (Monolith His-Tag Labeling Kit)
**Q.** Does B1 bind?
**A.** binds
